Results published in article PMC5433095 (mBio, 2017).

Columns and labels:
[1] = target: genotype 2a JFH1 E1E2 displayed on retrovirus-based HCV pseudoparticles (HCVpp) (Hepatitis C virus genotype 2a, isolate …, UniProt Q99IB8); assay: immunocapture of virus particles; conditions: one partner purified
[2] = target: T1, E1E2 glycoprotein complex on infectious cell culture-derived HCV particles (HCVcc) of strain JFH-1 (Hepatitis C virus genotype 2a, isolate …, UniProt Q99IB8); assay: immunocapture of virus particles; conditions: one partner purified
T1 construct: source: concentrated HCVcc of infectious HCV strain JFH-1

B1: MAb DAO5 IgG (antibody, V domains shown)
VH: EVQLQQSGPELVKPGASLKISCKTSGYTFTDFTFHWVKLSHGPSLEWIGTIKPSNGDTAYNQKFKGKATLSVDKSASTAHIEFRSLTSEDSAVYFCARFGGSYPYAMDYWGQGTSVIVSS
VL: DIVLTQSPATLSVTPGDRVSLSCRASQGIYNYVHWFQQKSHESPRLLIKYASQSISGIPSRFSGSGSGTDFTLSINSVESEDFGMYFCQQTNKWPLTFGAGTKLELK
- binding result [1]: binds
- binding result [2]: binds
